Test results from patent US20170174769A1.

B1: Comparator 3 (antibody, from another filing, V domains shown)
VH: EVQLVQSGAEVKKPGASVKVSCKVSGYTFTDYYMHWVQQAPGKGLEWMGLVDPEDGETIYAEKFQGRVTITADTSTDTAYMELSSLRSEDTAVYYCARDDYMDVWGKGTLVTVSS
VL: ETTLTQSPDTLSLSPGEGATLSCRASQSVSGSALAWYQQKPGQAPRLLIYDASSRATGVPDRFSGSGSGADFSLTISRLEPEDFAVYSCQQYGSSPLTFGPGTKVDVKR
B2: H1H8900P (antibody, V domains shown)
VH: QVQLVESGGGVVQPGRSLRLSCVASGFTFSSYGMHWVRQAPGKGLEWVAVISFDGSNKYYADSVKGRFTISRDNSKNTLYLQMNSLRPADTAVYYCAKDRSNYYYFGMDVWGQGTTVTVSS
VL: DIVMTQTPLSLPVTPGEPASISCRSSQSLLDSDDGNTYLDWYLQKPGQSPQLLIYTLSYRASGVPDRFSGSGSGTDFTLKISRVEAEDVGVYYCMQRIEFPLTFGGGTKVEIK

Legend:
[1] = biological target: human KLB and human FGFR1c co-expressed on HEK293/hKLB/hFGFR1c/SRE-luc cells (human) (UniProt Q86Z14); assay: FACS on stable HEK293 cells
[2] = biological target: full-length human KLB on HEK293/hKLB/SRE-luc cells (human) (UniProt Q86Z14); assay: FACS on stable HEK293 cells
[3] = biological target: full-length human FGFR1c on HEK293/hFGFR1c/SRE-luc cells (human) (UniProt P11362); assay: FACS on stable HEK293 cells
[4] = biological target: extracellular domain of human KLB expressed with C-terminal HA and hexahistidine tags (human) (UniProt Q86Z14); assay: SPR, mAb captured, 25 C
[5] = biological target: extracellular domain of human FGFR1c expressed with C-terminal V5 and hexahistidine tags (human) (UniProt P11362); assay: SPR, mAb captured, 25 C
[6] = biological target: extracellular domain of human KLB expressed with C-terminal HA and hexahistidine tags (human) (UniProt Q86Z14); assay: SPR, mAb captured, 37 C
[7] = biological target: extracellular domain of human FGFR1c expressed with C-terminal V5 and hexahistidine tags (human) (UniProt P11362); assay: SPR, mAb captured, 37 C
[8] = biological target: mouse KLB and mouse FGFR1c co-expressed on HEK293/mKLB/mFGFR1c/SRE-Luc cells (mouse); assay: FACS on stable HEK293 cells, 33 nM
[9] = biological target: mouse KLB and mouse FGFR1c co-expressed on HEK293/mKLB/mFGFR1c/SRE-Luc cells (mouse); assay: FACS on stable HEK293 cells, 965 nM

Sequence of extracellular domain of human FGFR1c expressed with C-terminal V5 and hexahistidine tags (human) (P11362 other isoform, or with tags, fused parts or gaps limits assumed): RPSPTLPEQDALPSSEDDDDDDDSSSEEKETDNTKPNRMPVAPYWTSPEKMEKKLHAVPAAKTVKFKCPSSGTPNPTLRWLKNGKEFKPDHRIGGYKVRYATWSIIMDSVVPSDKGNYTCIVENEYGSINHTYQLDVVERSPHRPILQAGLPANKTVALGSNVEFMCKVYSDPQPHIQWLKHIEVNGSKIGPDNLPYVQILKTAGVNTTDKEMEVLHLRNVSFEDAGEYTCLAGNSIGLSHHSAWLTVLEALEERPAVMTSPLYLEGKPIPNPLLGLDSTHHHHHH
Sequence of extracellular domain of human KLB expressed with C-terminal HA and hexahistidine tags (human) (Q86Z14 1-996 limits assumed): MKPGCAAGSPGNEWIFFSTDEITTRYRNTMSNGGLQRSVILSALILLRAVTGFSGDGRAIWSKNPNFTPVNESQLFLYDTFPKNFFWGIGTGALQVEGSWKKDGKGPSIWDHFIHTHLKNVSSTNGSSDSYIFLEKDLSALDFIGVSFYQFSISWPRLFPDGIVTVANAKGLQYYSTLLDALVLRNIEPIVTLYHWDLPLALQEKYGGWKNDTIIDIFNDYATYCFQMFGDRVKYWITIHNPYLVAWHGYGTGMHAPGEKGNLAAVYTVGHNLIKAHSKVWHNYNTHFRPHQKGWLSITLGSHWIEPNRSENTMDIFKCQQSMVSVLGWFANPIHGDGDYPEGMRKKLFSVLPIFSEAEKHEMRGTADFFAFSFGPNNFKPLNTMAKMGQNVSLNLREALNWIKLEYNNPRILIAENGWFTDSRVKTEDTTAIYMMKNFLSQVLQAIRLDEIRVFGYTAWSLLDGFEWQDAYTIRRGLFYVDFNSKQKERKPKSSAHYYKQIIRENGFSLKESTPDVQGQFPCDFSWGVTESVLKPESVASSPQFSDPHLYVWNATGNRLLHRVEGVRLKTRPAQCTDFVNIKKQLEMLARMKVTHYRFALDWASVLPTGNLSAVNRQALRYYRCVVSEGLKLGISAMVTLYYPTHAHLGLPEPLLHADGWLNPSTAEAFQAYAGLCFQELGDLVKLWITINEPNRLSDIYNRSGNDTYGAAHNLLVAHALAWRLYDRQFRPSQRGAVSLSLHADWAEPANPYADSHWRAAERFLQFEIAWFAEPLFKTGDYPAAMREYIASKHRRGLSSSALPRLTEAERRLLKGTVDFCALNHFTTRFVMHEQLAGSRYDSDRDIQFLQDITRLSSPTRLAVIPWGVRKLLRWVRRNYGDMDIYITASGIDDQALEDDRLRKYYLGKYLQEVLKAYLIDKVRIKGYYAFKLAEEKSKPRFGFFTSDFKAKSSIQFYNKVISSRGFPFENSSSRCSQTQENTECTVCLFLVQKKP
Sequence of full-length human FGFR1c on HEK293/hFGFR1c/SRE-luc cells (human) (P11362 other isoform, or with tags, fused parts or gaps limits assumed): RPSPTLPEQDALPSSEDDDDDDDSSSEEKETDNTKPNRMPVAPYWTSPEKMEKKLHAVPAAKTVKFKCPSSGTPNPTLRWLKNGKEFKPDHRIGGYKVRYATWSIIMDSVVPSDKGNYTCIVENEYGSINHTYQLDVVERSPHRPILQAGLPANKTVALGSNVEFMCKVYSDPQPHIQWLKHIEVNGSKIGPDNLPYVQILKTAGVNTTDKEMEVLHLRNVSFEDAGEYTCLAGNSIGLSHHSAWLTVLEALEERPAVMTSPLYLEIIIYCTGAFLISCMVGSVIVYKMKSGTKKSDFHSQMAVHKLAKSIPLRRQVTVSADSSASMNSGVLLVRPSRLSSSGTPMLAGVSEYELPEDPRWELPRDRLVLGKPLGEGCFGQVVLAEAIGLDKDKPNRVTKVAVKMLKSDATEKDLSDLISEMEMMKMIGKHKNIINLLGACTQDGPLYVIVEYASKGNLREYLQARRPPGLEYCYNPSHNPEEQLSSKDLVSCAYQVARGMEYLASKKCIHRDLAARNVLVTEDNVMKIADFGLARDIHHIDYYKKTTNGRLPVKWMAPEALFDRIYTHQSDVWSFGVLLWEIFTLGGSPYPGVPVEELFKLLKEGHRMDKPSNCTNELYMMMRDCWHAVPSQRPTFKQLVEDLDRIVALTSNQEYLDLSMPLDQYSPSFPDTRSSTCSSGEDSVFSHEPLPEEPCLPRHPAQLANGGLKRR
Sequence of full-length human KLB on HEK293/hKLB/SRE-luc cells (human) (Q86Z14 whole entry): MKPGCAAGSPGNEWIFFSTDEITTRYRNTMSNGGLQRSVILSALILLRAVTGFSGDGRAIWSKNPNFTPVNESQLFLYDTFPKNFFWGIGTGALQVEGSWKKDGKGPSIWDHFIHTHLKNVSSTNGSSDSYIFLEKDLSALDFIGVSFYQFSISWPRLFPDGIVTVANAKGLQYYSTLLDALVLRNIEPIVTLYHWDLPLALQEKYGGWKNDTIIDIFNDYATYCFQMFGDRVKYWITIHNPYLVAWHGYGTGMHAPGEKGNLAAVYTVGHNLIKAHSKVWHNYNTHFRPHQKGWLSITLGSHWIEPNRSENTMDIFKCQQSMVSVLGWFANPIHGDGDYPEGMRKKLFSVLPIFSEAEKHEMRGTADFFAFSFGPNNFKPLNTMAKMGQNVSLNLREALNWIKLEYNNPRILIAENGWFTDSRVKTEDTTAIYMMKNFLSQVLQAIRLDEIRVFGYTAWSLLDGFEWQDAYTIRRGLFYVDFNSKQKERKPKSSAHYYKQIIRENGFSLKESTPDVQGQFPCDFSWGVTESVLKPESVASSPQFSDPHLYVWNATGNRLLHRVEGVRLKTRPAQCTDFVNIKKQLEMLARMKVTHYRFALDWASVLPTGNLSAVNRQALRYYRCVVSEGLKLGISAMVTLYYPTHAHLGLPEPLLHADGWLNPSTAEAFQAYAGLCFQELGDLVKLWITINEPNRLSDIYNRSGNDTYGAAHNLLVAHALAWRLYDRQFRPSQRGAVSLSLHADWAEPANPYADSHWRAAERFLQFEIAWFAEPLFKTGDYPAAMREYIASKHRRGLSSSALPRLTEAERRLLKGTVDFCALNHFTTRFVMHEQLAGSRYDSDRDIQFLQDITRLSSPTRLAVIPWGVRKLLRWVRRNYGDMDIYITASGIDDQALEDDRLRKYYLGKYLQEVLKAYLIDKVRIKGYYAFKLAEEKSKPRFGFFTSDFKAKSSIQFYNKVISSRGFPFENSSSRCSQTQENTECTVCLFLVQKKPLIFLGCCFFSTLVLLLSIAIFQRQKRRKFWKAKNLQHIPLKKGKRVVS
Sequence of human KLB and human FGFR1c co-expressed on HEK293/hKLB/hFGFR1c/SRE-luc cells (human) (Q86Z14 whole entry, chain 1 of 2): as the sequence (Q86Z14 whole entry) above

| binding ratio to unstained cells [1] [fold] | binding ratio to unstained cells [2] [fold] | binding ratio to unstained cells [3] [fold] | 20 nM hKLB-HA-6His Bind (RU) [4] [RU] | 180 nM hFGFR1c-V5-6His Bind (RU) [5] [RU] | Kd [5] [nM] | koff [5] [s⁻¹] | kon [5] [M⁻¹ s⁻¹] | t1/2 [5] [s] | 20 nM hKLB-HA-6His Bind (RU) [6] [RU] | 180 nM hFGFR1c-V5-6His Bind (RU) [7] [RU] | Kd [7] [nM] | koff [7] [s⁻¹] | kon [7] [M⁻¹ s⁻¹] | t1/2 [7] [s] | MFI Ratio to unstained cells [8] [fold] | MFI Ratio to unstained cells [9] [fold] | Binder |
| --- | --- | --- | --- | --- | --- | --- | --- | --- | --- | --- | --- | --- | --- | --- | --- | --- | --- |
| 33 | 2 | 27 | -1.1 | 16.4 | 4.12 | 0.0129 | 3.13e+06 | 54 | -1 | 88.8 | 8.76 | 0.0208 | 2.37e+06 | 36 | – | – | B1 |
| – | – | – | – | – | – | – | – | – | – | – | – | – | – | – | 1 | 2 | B2 |
